Among the data in patent US20210198377A1 (XDCEXPLORER SHANGHAI, published 2021) are competition rate and EC50 values, retold here.

Where a chain is given by its changes, count along the chain named.

In assay [1] the target is T1, biotinylated recombinant TPBG protein (Homo sapiens (Human), UniProt Q13641 32-355, Biotinylated; the number and positions of the biotin labels are not stated and the letters do not carry them.).
T1 sequence: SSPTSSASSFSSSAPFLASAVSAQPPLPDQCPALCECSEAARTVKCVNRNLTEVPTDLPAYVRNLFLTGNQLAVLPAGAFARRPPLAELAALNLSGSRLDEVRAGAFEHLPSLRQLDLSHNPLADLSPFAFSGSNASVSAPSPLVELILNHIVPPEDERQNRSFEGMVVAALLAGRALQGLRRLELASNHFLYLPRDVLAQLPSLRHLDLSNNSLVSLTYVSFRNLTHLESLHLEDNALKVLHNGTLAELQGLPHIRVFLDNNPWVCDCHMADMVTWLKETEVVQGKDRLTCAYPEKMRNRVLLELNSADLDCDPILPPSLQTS
The experiment in a line: competitive ELISA; row antibody 5 ug/mL; competitor: coated 5G4H10G5. The method, then:
(§1) The purified antibodies to be tested were diluted to 1 μg/mL using PBS, and coated with high-adsorption of 96-well microplates at […]. After overnight coating at 4[…], 250 μL of blocking buffer (PBS containing 0.01% (v/v) Tween20 and 1% (w/w) BSA) was added to block coating at room temperature for 1 h, and 0.05 μg/mL of biotinylated recombinant TPBG protein was added to each well. Meanwhile, 5 μg/mL final concentration of competitive antibodies, i.e. the purified antibodies obtained from Embodiment 2 with the clone number of 12B12C7C3, 5G4H10G5, 37H9C5G2, 39A11G5F2, 52C9E9F6, 28D4E6A9, 36A10D8B12, 99E12C7H1, 103E2E9C2 and 106D5G3D10 were added and incubated at 25-37° C. for 1-2 h. The plates were washed three times with plate-washing buffer (PBS containing 0.01% (v/v) Tween20) and HRP (horseradish peroxidase)-labeled streptavidin (purchased from Sigma) was added. After incubating at 37° C. for 0.5 h, the plates were washed three times with plate-washing buffer (PBS containing 0.01% (v/v) Tween20), and 100 μL of TMB substrate was added to each well and the plates were further incubated at room temperature for 30 min prior to adding 100 μL of stop buffer (1.0N HCl) to each well. A₄₅₀ₙₘ values were read using an ELISA microplate reader (SpectraMax 384plus purchased from Molecular Device) and results were shown in FIG. 6. The higher the values of the competition rate, the closer the antigen surface of the two antibodies are.
For orientation: ELISA stands for enzyme-linked immunosorbent assay.

For assay [2], the target named is T1, biotinylated recombinant TPBG protein. The experiment in a line: competitive ELISA; row antibody 5 ug/mL; competitor: coated 28D4E6A9. Here is the method: as §1
In assay [3] the target is T2, cynomolgus monkey TPBG (full length, on cells) (cynomolgus monkey, UniProt Q4R8Y9 35-420).
T2 construct: whole, on cells; On transfected CHO-K1 cells; also called cTPBG; CHO-K1-cTPBG
T2 sequence (looked up): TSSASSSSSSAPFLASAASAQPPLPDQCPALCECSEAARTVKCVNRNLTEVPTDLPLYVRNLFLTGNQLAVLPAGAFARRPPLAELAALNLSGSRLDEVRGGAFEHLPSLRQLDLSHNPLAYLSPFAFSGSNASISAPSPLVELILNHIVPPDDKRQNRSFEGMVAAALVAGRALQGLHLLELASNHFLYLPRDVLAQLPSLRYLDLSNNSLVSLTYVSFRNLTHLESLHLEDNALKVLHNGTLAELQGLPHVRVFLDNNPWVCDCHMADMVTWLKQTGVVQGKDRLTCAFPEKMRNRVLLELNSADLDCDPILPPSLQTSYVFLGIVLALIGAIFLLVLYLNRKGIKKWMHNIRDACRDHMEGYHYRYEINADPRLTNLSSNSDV
The assay can be described thus: FACS on CHO-K1-cTPBG cells. From the text: The stable cell lines CHO-k1-hTPBG, CHO-k1-cTPBG, CHO-k1-mTPBG (i.e. the CHO-k1-hTPBG 3A2F1, CHO-k1-cTPBG 3F13G4 and CHO-k1-mTPBG 3A3 shown in table 7) and CHO-K1 cells were expanded to a 90% of confluency in T-75 cell culture flasks, the culture medium were removed, and cells were then rinsed twice with HBSS buffer (Hanks Balanced Salt Solution, purchased from Invitrogen) and lysed with enzyme-free cell dissociation buffer (Versene solution purchased from Life technology) and harvested. Harvested cells were rinsed with HBSS buffer twice and counted before diluting with HBSS buffer to 2×10⁶ cells /mL, and 10% goat serum blocking buffer was then added, wherein the percentage is the mass percentage. Cells were incubated on ice for 30 min, and then washed twice with HBSS buffer by centrifugation. The harvested cells were resuspended with FACS buffer (HBSS+1% BSA, wherein the percentage is mass percentage) to a concentration of 2×10⁶ cells /mL. 100 μL per well of the cells was aliquoted to 96-well FACS reaction plates, and 100 μL per well of test sample—the purified TPBG antibody obtaining from Embodiment 2 was added before incubating on ice for 2 h. The plate was washed with the FACS buffer twice by centrifugation, and 100 μL per well of fluorescence (Alexa 488) labeled secondary antibody (purchased from Invitrogen) was then added and incubated on ice for 1 h. The plate was washed with the FACS buffer for three times by centrifugation, follow by resuspending in 100 μL of fixation buffer (4% (v/v) paraformaldehyde). Cells were washed with FACS buffer twice after 10 min, follow by resuspending with 100 μL of FACS buffer. The results were measured and analyzed by FACS (FACS Calibur, purchased from BD). Data analysis was performed by software (CellQuest) to obtain mean fluorescence intensity (MFI) of the cells, follow by calculating EC50 value by software (GraphPad Prism) analysis and data fitting. The analysis results were shown in Table 8 and FIGS. 7-10, and data in FIGS. 7-10 show the mean fluorescence intensity (MFI) of cells.

B1: 28D4E6A9 (antibody, V domains shown)
VH: DVQLVESGGGLVRPGGSLKLSCAASGFTFSNYVMSWARQSPEKRLEWVAEISTGGSHTYYSDTVTGRFTISRDNAKKALYLEMSSLRSEDTAIYYCIMFYYGSSYSMDYWGQGTSVTVSS
VL: DIQMTQSTSSLSASLGDRITISCRASQDIRNYLNWYQQKPDGTVKLLIYHTSRLHSGVPSRFSGSGSGTDYSLTISNLEQEDIATYFCQQGDTLPLTFGAGTRLELK
notes: Mouse hybridoma antibody purified from culture supernatant; also called TPBG antibody; lead antibody
For B1, the competition rate in assay [1] turned out to be 11%; in assay [2] it was 96%. A half-maximal response in assay [3] (EC50) required 0.25 nM.

B2: 36A10D8B12 (antibody, V domains shown)
VH: DVQLQESGPGMVKPSQSLSLTCTVTGYSITSGYDWHWIRHFPGNKLEWMGYISYSGNTNYNPSLKSRISITHNTSKNHFFLRLNSVTTEDTATYYCARGYGNWDAMDYWGQGTSVTVSS
VL: DIVMTQSQKFMSTSVGDRVSVTCKASQIVDTNVAWYQQKPGQSPKALISSASYRYSGVPDRFTGSGSGTDFTLTISNVQSEDLAEYFCQQYNSYPLTFGAGTKLELT
notes: as for B1
In the case of B2, the competition rate worked out at 17% in assay [1] and 86% in assay [2]. In assay [3], the EC50 (as a rule, the concentration that produces a half-maximal response) worked out at 0.6 nM.

B3: 37H9C5G2 (antibody, V domains shown)
VH: QVQLQQSDAELVRPGASVKMSCKVSGYTFTDHTIHWMKQRPEQGLEWIGYIYPRDGSGTYNEKFKGKATLTADKSSSTAYMQLNSLTSEDSAVYFCARDGSSHYWYFDVWGTGTTVTVSS
VL: DIQMTQSPASLSASVGETVTITCRASEIIYNYLAWYQQKQGKSPQLLVYNAKTLAEGVPSRFSGSYSGTQFSLNINSLQSEDFGIYYCQHHHDTPLTFGAGTKLDLK
notes: as for B1
B3: the competition rate in assay [1] came out at 12%; in assay [2], 58%. For the same molecule, a half-maximal response in assay [3] (EC50) required 0.62 nM.

B4: 39A11G5F2 (antibody, V domains shown)
VH: QVQLQQSGAELMKPGASMRLSCKATGYTFTGYWLEWIKRRPGHGLEWIGEILPGRGSTNYNEKFKGKATFTAETSSNTAYMQLTSLTTEDSAIYYCARGGRDFDNWGQGTTLTVSS
VL: DIQMTQSTSSLSASLGDRVTISCSASQGINNHLNWYQQKPDGTVKLLIYYTSSLHSGVPSRFSGSGSGTDYSLTISNLEPEDIAIYYCQQFSKLPYTFGGGTKVEMK
notes: as for B1
B4: the competition rate was 19% in assay [1] and 0% in assay [2]. Further, the EC50 in assay [3] was determined as 1.35 nM.

B5: 52C9E9F6 (antibody, V domains shown)
VH: QVQLQQSGAELMKPGASVKLSCKATGYTFTGYWIEWIKQRPGHGLEWIGEILPGRGSTDYNEKFKGKATFTADTSSNTAYMQLSSLTTEDSAIYYCTRGRLDFTYWGQGTLVTVSA
VL: B4 VL with S7T, N30R, H32Y, I85T, F91Y, L94V, Y96W, V104L, M106I
notes: as for B1
Turning to B5, the values for the competition rate in assay [1] and in assay [2] were 32% and 17%, respectively. In assay [3], this molecule yielded a concentration for a half-maximal effect (EC50) of 1.54 nM.

B6: 106D5G3D10 (antibody, V domains shown)
VH: EVQLVESGGGLVKPGGSLKLSCAASGFTFSDYGMHWVRQAPEKGLEWVGYISSGTYVVYYADTVKGRFTISRDNAKNTLFLQMTSLRSEDTAIYYCSTYGSNPFDYWGQGTTLTVSS
VL: QLVLTQSPAIMSASPGEKVTITCSATSSVSSMHWFQQKPVTSPKLWIYSTSNLASGVPTRFSGSGSGTSYSLTISRMEAEDAATYYCQQRSGYPPIFTFGSGTKLEIK
notes: as for B1
Regarding B6, the competition rate in assay [1] stood at 40%; in assay [2] it was 1%. This molecule also registered an EC50 in assay [3] of 1.26 nM.

B7: 103E2E9C2 (antibody, V domains shown)
VH: EVQLQQSGPVLVKPGASVKMSCEASGYSFIDYYMSWVKQSRGRSLEWIGVFNPYSGEIIYNQKFKGKATLTVDKSSSTAYMELSSLTSEDSGVYSCARLRISYYAIDYWGQGTSVAVSS
VL: ENVLTQSPAIMSASPGEKVTMTCRATSSVSSGHFHWYQQKSGASPKVWIYSTSNLASGVPARFSGSGSGTSFSLTISSVEAEDVATYFCQQYSGYPLTFGGGTKLEIK
notes: as for B1
For the molecule B7, the competition rate stood at 7% in assay [1] and 95% in assay [2]. In addition, in assay [3], the EC50 was found to be 0.83 nM.

B8: 99E12C7H1 (antibody, V domains shown)
VH: QIQLVQSGPELKKPGETVKISCKPSGYTFTAYGLSWVKQAPGQGFQWMGWINTYSGVPTYTDDFKGRFAFSLETSAGTASLQITNLKNEDTATYFCARSSIPPFEYWGPGTTLTVSS
VL: SFVMTQSPKFLLVSVGDRVTITCKASQSVSNDVAWYQQKPGQPPRVLIYFASNRYTGVPDRFTGSGYGTDFTFTISTVQAEDLALYFCQQDYSSPWTFGGGTKLEIK
notes: as for B1
Consider B8, for which the competition rate amounted to 95% in assay [1] and 38% in assay [2]. The EC50 in assay [3] stood at 2.29 nM.

B9: 12B12C7C3 (antibody, V domains shown)
VH: DVQLVESGGGLVQPGGSRKLSCAASGFTFSNFGMHWVRQAPEKGLEWVAYISSGSTSFYYADTVKGRFTISRDNPKNTLFLQMTSLRSEDTAMYYCSRTNSLLRGFFDAWGAGTTVTVSS
VL: DIVLTQSPASLAVSLGQRATISCRASQSVSSSSYTYLHWYQQKPGQPPKLLIKSASNLESGVPARFSGTGSGTDFTLNIHPVEEEDTATYYCQHSWEIPLTFGAGTKLELK
notes: as for B1
On to B9, for which the competition rate in assay [1] stood at 47%; in assay [2], 74%. In addition, the EC50 in assay [3] came to 0.59 nM.

B10: 5G4H10G5 (antibody, V domains shown)
VH: EVQLVESGGDLVQPGGSLKLFCAASGFTFSTYGLSWVRQTPDKRLELVATITNNDGSAYYPDSVKGRFTISRDKAKNTLFLQMTSLKSEDTAMYYCARETGFGSSYLFDYWGQGTLVTVSA
VL: NIVMTQTPKFLLVSAGDRVTITCKASQSVSNDVAWYQQKPGQSPKLLIYFATNRYTGVPNRFTGSGYGTEFTFTISSVQAEDLAVYFCQQDYSSPTFGGGTKLEIK
notes: as for B1
Turning to B10, the competition rate was 97% in assay [1] and -1% in assay [2]. This molecule showed an EC50 in assay [3] of 0.84 nM.
